Results on 13 molecules are retold here after US20060257406A1 (published 2006).

Assay [1] addresses T1, human TNFα (human, UniProt P01375 77-233). The experiment in a line: cell-based or functional assay.
For assay [2], the target named is T1, human TNFα. Kind of assay: not stated; printed in the column 'Equilibrium dissocation constant (Kd = Koff/Kon)' of the data summary.
Assay [3] deals with T1, human TNFα. Kind of assay: TNF receptor assay (ELISA): inhibition of TNF binding to plate-bound TNF receptor 1-Fc.
Assay [4] has as its target T1, human TNFα. The experiment in a line: ELISA on 1 ug/ml TNF, 200 nM IgG, anti-Fc-HRP. The protocol: A 96 well plate was coated with 100 ul of INF and TNFRI at 1 ug/ml concentration in PBS overnight at 4 C. 50 ul (200 nM) of IgG was then added to the wells and bound IgG was detected via anti-Fc-HRP.
On the technique in general: ELISA stands for enzyme-linked immunosorbent assay.

Assay [5] has as its target T2, mouse serum albumin (mouse, UniProt P07724 25-608).
T2 construct: biotinylated MSA (about 2 biotins per molecule) in the capture ELISA; also called MSA
Kind of assay: inhibition biacore: dAb premixed with MSA, binding to MSA-coated CM5 chip, Klotz plot (estimated Kd). How it is done: The purified dabs were then analysed by inhibition biacore to determine Kd. […] Once the required concentrations of dAb had been determined, MSA antigen at a range of concentrations around the expected Kd was premixed with the dAb and incubated overnight. Binding to the MSA coated biacore chip of dAb in each of the premixes was then measured at a high flow-rate of 30 μl/minute.

In a further assay the target is T3, human serum albumin (human, UniProt P02768 25-609).
T3 construct: also called HSA
Kind of assay: capture ELISA: dAb on protein L, biotinylated HSA, streptavidin-HRP. How it is done:
(§1) Two rounds of selection were performed on serum albumin using each of the libraries separately. For each selection, antigen was coated on immunotube (nunc) in 4 ml of PBS at a concentration of 100 μg/ml. In the first round of selection, each of the three libraries was panned separately against HSA (Sigma) and MSA (Sigma). In the second round of selection, phage from each of the six first round selections was panned against (i) the same antigen again (eg 1st round MSA, 2nd round MSA) and (ii) against the reciprocal antigen (eg 1st round MSA, 2nd round HSA) resulting in a total of twelve 2nd round selections. In each case, after the second round of selection 48 clones were tested for binding to HSA and MSA. Soluble dAb fragments were produced as described for scFv fragments by Harrison et al, Methods Enzymol. 1996; 267:83-109 and standard ELISA protocol was followed (Hoogenboom et al. (1991) Nucleic Acids Res., 19: 4133) except that 2% tween PBS was used as a blocking buffer and bound dabs were detected with either protein LHRP (Sigma) (for the Vκs) and protein A—HRP (Amersham Pharmacia Biotech) (for the VHs).
Next, the serum albumin binding dAbs were tested for their ability to capture biotinylated antigen from solution. ELISA protocol (as above) was followed except that ELISA plate was coated with 1 μg/ml protein L (for the Vκ clones) and 1 μg/ml protein A (for the VH clones). […]

Assay [6] addresses T2, mouse serum albumin. The experiment in a line: capture ELISA: dAb on protein L, biotinylated MSA, streptavidin-HRP. The protocol: as §1
Next, the serum albumin binding dAbs were tested for their ability to capture biotinylated antigen from solution. ELISA protocol (as above) was followed except that ELISA plate was coated with 1 μg/ml protein L (for the Vκ clones) and 1 μg/ml protein A (for the VH clones). Soluble dAb was captured from solution as in the protocol and detection was with biotinylated MSA or HSA and streptavidin HRP. The biotinylated MSA and HSA had been prepared according to the manufacturer's instructions, with the aim of achieving an average of 2 biotins per serum albumin molecule. […] Next, the dAbs were tested for their ability to bind MSA coated on a CM5 biacore chip.

The target of assay [7] is T4, hen egg lysozyme (hen, UniProt P00698 19-147).
T4 construct: also called HEL; HL
The experiment in a line: ELISA on coated hen egg lysozyme, detection with 9e10 and anti mouse IgG-HRP.

The target of assay [8] is T4, hen egg lysozyme. The experiment in a line: selection from a dAb library.
The target of assay [9] is T1, human TNFα. Kind of assay: TNF receptor assay (ELISA): inhibition of TNF binding to plate-bound TNF receptor 1-Fc. The source holds these as a separate data set.
The target of assay [10] is T1, human TNFα. Kind of assay: TNF receptor assay (ELISA), fermenter material purified by cation exchange FPLC.
Assay [11] has as its target T1, human TNFα. The experiment in a line: TNF receptor assay (ELISA): inhibition of TNF binding to plate-bound TNF receptor 1-Fc. The source holds these as a separate data set.

T1 sequence (P01375 77-233 limits assumed): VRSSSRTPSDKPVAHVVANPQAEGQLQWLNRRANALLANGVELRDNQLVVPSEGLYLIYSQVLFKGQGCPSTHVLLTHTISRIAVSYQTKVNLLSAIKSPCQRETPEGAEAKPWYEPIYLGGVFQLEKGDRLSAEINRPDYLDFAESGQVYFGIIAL
T2 sequence (P07724 25-608 limits assumed): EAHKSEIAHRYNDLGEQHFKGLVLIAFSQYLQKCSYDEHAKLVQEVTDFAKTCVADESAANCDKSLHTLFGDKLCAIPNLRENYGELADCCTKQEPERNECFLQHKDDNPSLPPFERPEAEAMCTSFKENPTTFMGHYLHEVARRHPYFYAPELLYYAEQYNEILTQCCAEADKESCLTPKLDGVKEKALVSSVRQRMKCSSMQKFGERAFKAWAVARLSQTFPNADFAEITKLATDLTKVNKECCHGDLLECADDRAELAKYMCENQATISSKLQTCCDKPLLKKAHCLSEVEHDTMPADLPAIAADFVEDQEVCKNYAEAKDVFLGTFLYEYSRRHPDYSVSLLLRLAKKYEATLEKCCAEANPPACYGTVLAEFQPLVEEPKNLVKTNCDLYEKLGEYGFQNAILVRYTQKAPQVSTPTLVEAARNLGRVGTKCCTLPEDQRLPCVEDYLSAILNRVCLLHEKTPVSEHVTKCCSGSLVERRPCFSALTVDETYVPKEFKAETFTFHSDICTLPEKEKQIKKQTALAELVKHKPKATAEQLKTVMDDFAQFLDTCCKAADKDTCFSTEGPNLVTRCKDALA
T4 sequence (P00698 19-147): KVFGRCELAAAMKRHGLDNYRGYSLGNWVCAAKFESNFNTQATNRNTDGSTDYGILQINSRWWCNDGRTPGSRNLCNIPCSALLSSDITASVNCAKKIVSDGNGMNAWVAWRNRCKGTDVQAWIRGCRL

B1: TAR1-5-19 dAb monomer (other)
VL: DIQMTQSPSSLSASVGDRVTITCRASQSIDSYLHWYQQKPGKAPKLLIYSASELQSGVPSRFSGSGSGTDFTLTISSLQPEDFATYYCQQVVWRPFTFGQGTKVEIKR
notes: also called TAR1-5-19 monomer; TAR1-5-19 Vκ dAb
For orientation: Kd means the concentration at which binding is half-saturated. The IC50 is the concentration at which inhibition is half-maximal. The low end stands for higher potency, the high end for lower potency. In the case of B1, the “ND50 in the cell assay” value in the assay with human TNFα [1] is ~30 nM. In the assay with human TNFα [2], this molecule registered a Kd of 30 nM. Moreover, the concentration for half-maximal inhibition (IC50) in the assay with human TNFα [3] stood at 30 nM.

B2: TAR1-5-19, MSA16 cys bonded heterodimer (bispecific antibody, V domains shown)
V domain 1: DIQMTQSPSSLSASVGDRVTITCRASQSIDSYLHWYQQKPGKAPKLLIYSASELQSGVPSRFSGSGSGTDFTLTISSLQPEDFATYYCQQVVWRPFTFGQGTKVEIKR
V domain 2: DIQMTQSPSSLSASVGDRVTITCRASQSIIKHLKWYQQKPGKAPKLLIYGASRLQSGVPSRFSGSGSGTDFTLTISSLQPEDFATYYCQQGARWPQTFGQGTKVEIKR
modifications: C-terminal Cys disulphide bonded to the C-terminal Cys of the MSA16 chain ; chain 1 pos 109 Cys and chain 2 pos 109 Cys are joined by an intermolecular disulphide bond (chemical coupling via dithiodipyridine); no tags
notes: two Vκ dAbs joined by a disulphide bond; separated from monomers by cation exchange; also called disulphide bonded heterodimer of TAR1-5-19 dAb and MSA16 dAb; heterodimeric species
Take B2: the IC50 in the assay with human TNFα [3] was ~18 nM.

B3: TAR1/TAR2 IgG (bispecific antibody, V domains shown)
VH: EVQLLESGGGLVQPGGSLRLSCAASGFTFEWYWMGWVRQAPGKGLEWVSAISGSGGSTYYADSVKGRFTISRDNSKNTLYLQMNSLRAEDAAVYYCAKVKLGGGPNFGYRGQGTLVTVSS
VL: DIQMTQSPSSLSASVGDRVTITCRASQSIDSYLHWYQQKPGKAPKLLIYSASELQSGVPSRFSGSGSGTDFTLTISSLQPEDFATYYCQQVVWRPFTFGQGTKVEIKR
notes: expressed in COS7 cells with CD33 or IgG κ leader, purified on Protein A; also called the IgG; not shown: IgG1 heavy chain constant region (CH1 from the CH vector; hinge, CH2 and CH3 from the pigplus vector); light chain kappa constant region (CK domain from the CK vector)
On to B3, for which the binding result in the assay with human TNFα [4] was “binds”.

B4: MSA16 (other)
VL: DIQMTQSPSSLSASVGDRVTITCRASQSIIKHLKWYQQKPGKAPKLLIYGASRLQSGVPSRFSGSGSGTDFTLTISSLQPEDFATYYCQQGARWPQTFGQGTKVEIK
notes: also called 21; dAb MSA16
Regarding B4, the Kd with mouse serum albumin [5] is 200 nM.

B5: anti-serum albumin Vκ dAb clones 2, 4, 7, 41 (other)
VL: DIQMTQSPSSLSASVGDRVTITCRASQSISSYLNWYQQKPGKAPKLLIYRASPLQSGVPSRFSGSGSGTDFTLTISSLQPEDFATYYCQQTYSVPPTFGQGTKVEIK
Turning to B5, the binding result with human serum albumin and with mouse serum albumin [6] was “binds” in each case.

B6: MSA26 (other)
VL: DIQMTQSPSSLSASVGDRVTITCRASQSIYYHLKWYQQKPGKAPKLLIYKASTLQSGVPSRFSGSGSGTDFTLTISSLQPEDFATYYCQQVRKVPRTFGQGTKVEIK
notes: also called 25; dAb MSA26
With B6, in the assay with mouse serum albumin [5], the Kd was 70 nM.

B7: anti-serum albumin Vκ dAb clones 38, 54 (other)
VL: DIQMTQSPSSLSASVGDRVTITCRASQSISSYLNWYQQKPGKAPKLLIYRASPLQSGVPSRFSGSGSGTDFTLTISSLQPEDFATYYCQQTYRIPPTFGQGTKVEIK
For B7, the binding result with human serum albumin and with mouse serum albumin [6] was “binds” in each case.

B8: VH CH/VH Cκ dual specific Fab like fragment (HEL4 CH, TAR2-5 Cκ) (Fab, V domains shown, not shown: a dimerising Fc or GST; small tags and cut ends)
V domain 1: EVQLLESGGGLVQPGGSLRLSCAASGFRISDEDMGWVRQAPGKGLEWVSSIYGPSGSTYYADSVKGRFTISRDNSKNTLYLQMNSLRAEDTAVYYCASALEPLSEPLGFWGQGTLVTVSS
V domain 2: EVQLLESGGGLVQPGGSLRLSCAASGFTFDLYNMFWVRQAPGKGLEWVSFISQTGRLTWYADSVKGRFTISRDNSKNTLYLQMNSLRAEDTAVYYCAKTLEDFDYWGQGTLVTVSS
B8: in the assay with hen egg lysozyme [7], the ELISA signal worked out at 0.154.

B9: HEL4 (other)
VH: EVQLLESGGGLVQPGGSLRLSCAASGFRISDEDMGWVRQAPGKGLEWVSSIYGPSGSTYYADSVKGRFTISRDNSKNTLYLQMNSLRAEDTAVYYCASALEPLSEPLGFWGQGTLVTVSS
notes: also called VH dAb HEL4; anti-hen egg white lysozyme dAb
Regarding B9, in the assay with hen egg lysozyme [8], the binding result is “binds”.

B10: VH Cκ chain expressed alone (protein, not shown: a dimerising Fc or GST; small tags and cut ends)
VH: EVQLLESGGGLVQPGGSLRLSCAASGFTFDLYNMFWVRQAPGKGLEWVSFISQTGRLTWYADSVKGRFTISRDNSKNTLYLQMNSLRAEDTAVYYCAKTLEDFDYWGQGTLVTVSS
B10: the ELISA signal in the assay with hen egg lysozyme [7] is 0.069.

B11: TAR1-5-19d4 (other)
chain: DIQMTQSPSSLSASVGDRVTITCRASQSIDSYLHWYQQKPGKAPKLLIYSASELQSGVPSRFSGSGSGTDFTLTISSLQPEDFATYYCQQVVWRPFTFGQGTKVEIKRGGGGSGGGGSGGGGSGGGGSGGGGSDIQMTQSPSSLSASVGDRVTITCRASQSVKEFLWWYQQKPGKAPKLLIYMASNLQSGVPSRFSGSGSGTDFTLTISSLQPEDFATYYCQQKFKLPRTFGQGTKVEIK
As to B11, in the assay with human TNFα [1], the “ND50 in the cell assay” value was ~5 nM. Also, the values for the IC50 with human TNFα [9] and with human TNFα [10] were 2 to 5 nM and 8 nM, respectively.

B12: TAR1-5-19CYS dimer (other)
chain: DIQMTQSPSSLSASVGDRVTITCRASQSIDSYLHWYQQKPGKAPKLLIYSASELQSGVPSRFSGSGSGTDFTLTISSLQPEDFATYYCQQVVWRPFTFGQGTKVEIKRC
modifications: disulphide between the C-terminal Cys of the two chains
notes: separated from monomer by cation exchange; also called the dimer
B12 displayed an IC50 with human TNFα [3] of 0.3 to 0.8 nM.

B13: trimeric TAR1-5-19CYS (other)
chain: DIQMTQSPSSLSASVGDRVTITCRASQSIDSYLHWYQQKPGKAPKLLIYSASELQSGVPSRFSGSGSGTDFTLTISSLQPEDFATYYCQQVVWRPFTFGQGTKVEIKRC
modifications: C-terminal Cys coupled to TMEA (Tris[2-maleimidoethyl]amine)
notes: also called the trimer; TAR1-5-19 homotrimer
In the case of B13, in the assay with human TNFα [11], the IC50 was determined as 0.3 nM.
